Experimental data as given in patent US20250320294A1.
Where two headings read alike, the source gives them in different places.

What was measured:
[1] = biological target: human-CD45RO-ECD-His (human) (UniProt P08575); assay: SPR, captured human-CD45RO-ECD-His, 1:1 binding
[2] = biological target: human-CD45RO-ECD-His (human) (UniProt P08575); assay: ELISA, human-CD45RO-ECD-His-coated plates
[3] = biological target: human-CD45RO-ECD-His (human) (UniProt P08575); assay: ELISA, human-CD45RO-ECD-His-coated plates; remark: listed apart in the source

“CD45RO Monoclonal Antibody (UCHL1) (eBioscience™)” showed a Kd [1] of 433 nM, a koff [1] of 0.00373 s⁻¹ and a kon [1] of 8610 M⁻¹ s⁻¹. For the same substance, the EC50 [2] was 0.328 nM and the EC50 [3] was 0.544 nM.
